Where a chain is given by its changes, count along the chain named.
Key:
Assay in all cases: SPR; Lge1-CT immobilised on a CM5 chip, Bre1-LR flown over; Biacore 8K, 25°C, 20 mM HEPES (pH 7.5), 200 mM sodium chloride, 0.02% Tween 20
Conditions in all cases: both partners purified
[1] = target: T1, Bre1-LR (Bre1 residues 227–700, LBD and RING domains), 6× histidine tag (budding yeast, UniProt Q07457 227-700)
T1 construct: two Bre1 polypeptides form the dimeric coiled-coils of the LBD in the crystal structure; also called WT; source: E. coli BL21 Rosetta (DE3), purified (Ni-NTA, heparin, gel filtration)
T1 sequence (looked up): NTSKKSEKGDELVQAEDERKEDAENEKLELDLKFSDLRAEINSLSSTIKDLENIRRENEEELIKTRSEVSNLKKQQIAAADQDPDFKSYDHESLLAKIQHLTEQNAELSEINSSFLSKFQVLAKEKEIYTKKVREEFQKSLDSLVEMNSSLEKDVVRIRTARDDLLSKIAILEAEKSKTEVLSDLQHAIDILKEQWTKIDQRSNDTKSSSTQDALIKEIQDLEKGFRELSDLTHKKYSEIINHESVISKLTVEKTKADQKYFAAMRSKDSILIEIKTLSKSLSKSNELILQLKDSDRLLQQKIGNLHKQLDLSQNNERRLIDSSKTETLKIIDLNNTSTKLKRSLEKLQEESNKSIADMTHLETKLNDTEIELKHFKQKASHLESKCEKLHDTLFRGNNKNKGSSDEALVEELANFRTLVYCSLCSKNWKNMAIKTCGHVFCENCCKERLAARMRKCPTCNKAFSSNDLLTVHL

Bre1-LR K379A = target: T2, Bre1-LR K379A (budding yeast, UniProt Q07457 227-700, K379A)
T2 construct: source: E. coli BL21 Rosetta (DE3), purified (Ni-NTA, heparin, gel filtration)
T2 sequence (looked up): T1 sequence (looked up) with K153A

Bre1-LR K352E = target: T3, Bre1-LR K352E (budding yeast, UniProt Q07457 227-700, K352E)
T3 construct: source: E. coli BL21 Rosetta (DE3), purified (Ni-NTA, heparin, gel filtration)
T3 sequence (looked up): T1 sequence (looked up) with K126E

Bre1-LR E378K/E500K = target: T4, Bre1-LR E378K/E500K (budding yeast, UniProt Q07457 227-700, E378K | E500K)
T4 construct: source: E. coli BL21 Rosetta (DE3), purified (Ni-NTA, heparin, gel filtration)
T4 sequence (looked up): T1 sequence (looked up) with E152K, E274K

B1: Lge1-CT (Lge1 residues 261–332), intein-chitin binding domain (CBD) tag construct (domain or fragment, budding yeast, UniProt Q02796 261-332, looked up)
chain: KNVKKTNNTESECEKAREVFKESDSIDSALEELNLKINSNELELRLLNNQCDKHALNIQLTQEKLDSLLLMQ
notes: Lge1, budding yeast, residues 261-332; residues 268–331 resolved in the electron density; the intein-CBD tag is named on the protein in the pull-down; also called intein-CBD-fused Lge1-CT; intein-CBD-tagged Lge1-CT; source: E. coli BL21 Rosetta (DE3): cleared cell extract on chitin resin (pull-down); purified (chitin, heparin, gel filtration) for ITC and SPR; co-purified with Bre1-LR for the …
Binder B1 has a Kd [1] of 17.5 nM, a Kd (Bre1-LR K379A) of 34 nM and a Kd (Bre1-LR K352E) of 76.6 nM. The Kd (Bre1-LR E378K/E500K) was 29 nM.

— paper PMC12802937 (Nucleic Acids Research, 2026)
